The experiment concerns the target tKeima (tetrameric large Stokes shift red fluorescent protein Keima) (Montipora sp.). Put plainly: SEC; gel filtration on Sephacryl S-100, 10 mM Tris-HCl (pH 8.0), 200 mM NaCl.

As a reminder, the stoichiometry N is a count of units in the complex or per binding partner.

With “tKeima (tetrameric large Stokes shift red fluorescent protein Keima)”, the stoichiometry N stood at 4.
